Numbered stars: 1 amine (or outer) side, 2 acyl side, 3 side chain; on linkers, the order of the positions; unused ones are H or OH. Square brackets hold non-standard residues; d marks the D form. * marks the point of attachment. AzaAsn = aza-asparagine, NC(=O)CN(N[*:1])C(=O)[*:2]; (S,S)‑EPCOOEt = (S,S)-epoxide ethyl ester; CH:CH‑COOEt = CCOC(=O)/C=C/*; Suc = O=C(CCC(=O)[*:2])[*:1]; Cbz = O=C(OCc1ccccc1)*
How the values were obtained:
human legumain = biological target: T1, human legumain (human, UniProt Q99538 19-323, limits assumed); assay: cell-based or functional assay
T1 sequence: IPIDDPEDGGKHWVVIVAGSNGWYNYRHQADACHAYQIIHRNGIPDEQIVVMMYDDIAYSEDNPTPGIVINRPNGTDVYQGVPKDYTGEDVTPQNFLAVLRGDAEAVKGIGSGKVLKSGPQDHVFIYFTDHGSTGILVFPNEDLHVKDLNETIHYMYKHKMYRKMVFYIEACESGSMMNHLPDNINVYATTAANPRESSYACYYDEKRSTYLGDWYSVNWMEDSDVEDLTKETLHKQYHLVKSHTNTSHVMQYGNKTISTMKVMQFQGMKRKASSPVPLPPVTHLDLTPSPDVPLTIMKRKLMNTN

[1] = biological target: recombinant legumain (Homo sapiens (Human)) (UniProt Q99538); assay: cell-based or functional assay
caspase 9, P55211 = biological target: T2, caspase 9, P55211
T2 chain: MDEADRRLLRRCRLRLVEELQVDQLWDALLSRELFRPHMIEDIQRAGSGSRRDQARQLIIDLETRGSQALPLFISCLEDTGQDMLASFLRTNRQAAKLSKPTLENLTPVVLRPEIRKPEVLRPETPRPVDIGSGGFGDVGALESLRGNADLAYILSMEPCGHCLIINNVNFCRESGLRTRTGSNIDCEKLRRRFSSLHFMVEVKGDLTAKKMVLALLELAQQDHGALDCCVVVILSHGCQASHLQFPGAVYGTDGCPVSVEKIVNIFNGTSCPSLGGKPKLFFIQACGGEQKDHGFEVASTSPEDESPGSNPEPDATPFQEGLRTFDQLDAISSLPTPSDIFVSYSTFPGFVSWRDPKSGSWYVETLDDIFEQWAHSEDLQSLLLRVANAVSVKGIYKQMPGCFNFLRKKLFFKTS

progelatinase A, P08253 = biological target: T3, progelatinase A, P08253
T3 chain: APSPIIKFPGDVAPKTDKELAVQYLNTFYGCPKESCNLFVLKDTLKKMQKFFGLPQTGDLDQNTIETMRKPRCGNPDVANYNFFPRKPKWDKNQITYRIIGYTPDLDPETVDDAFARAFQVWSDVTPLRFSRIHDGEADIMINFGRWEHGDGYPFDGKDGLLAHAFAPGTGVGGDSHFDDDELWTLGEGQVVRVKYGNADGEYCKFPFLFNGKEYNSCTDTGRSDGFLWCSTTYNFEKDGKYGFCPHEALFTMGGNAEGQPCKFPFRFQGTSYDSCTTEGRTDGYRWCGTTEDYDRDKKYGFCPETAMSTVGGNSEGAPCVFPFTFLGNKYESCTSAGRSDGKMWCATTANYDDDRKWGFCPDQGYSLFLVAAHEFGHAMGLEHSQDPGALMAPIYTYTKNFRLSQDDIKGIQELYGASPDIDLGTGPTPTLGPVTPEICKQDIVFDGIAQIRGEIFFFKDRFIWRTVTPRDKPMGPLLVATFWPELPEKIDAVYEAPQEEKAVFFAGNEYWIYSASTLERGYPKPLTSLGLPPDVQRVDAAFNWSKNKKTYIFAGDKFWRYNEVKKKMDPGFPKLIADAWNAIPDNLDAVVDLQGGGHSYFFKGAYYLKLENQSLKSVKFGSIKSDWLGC

[2] = biological target: T4, αvβ3 integrin (added to the legumain activity assays), P06756
T4 chain 1: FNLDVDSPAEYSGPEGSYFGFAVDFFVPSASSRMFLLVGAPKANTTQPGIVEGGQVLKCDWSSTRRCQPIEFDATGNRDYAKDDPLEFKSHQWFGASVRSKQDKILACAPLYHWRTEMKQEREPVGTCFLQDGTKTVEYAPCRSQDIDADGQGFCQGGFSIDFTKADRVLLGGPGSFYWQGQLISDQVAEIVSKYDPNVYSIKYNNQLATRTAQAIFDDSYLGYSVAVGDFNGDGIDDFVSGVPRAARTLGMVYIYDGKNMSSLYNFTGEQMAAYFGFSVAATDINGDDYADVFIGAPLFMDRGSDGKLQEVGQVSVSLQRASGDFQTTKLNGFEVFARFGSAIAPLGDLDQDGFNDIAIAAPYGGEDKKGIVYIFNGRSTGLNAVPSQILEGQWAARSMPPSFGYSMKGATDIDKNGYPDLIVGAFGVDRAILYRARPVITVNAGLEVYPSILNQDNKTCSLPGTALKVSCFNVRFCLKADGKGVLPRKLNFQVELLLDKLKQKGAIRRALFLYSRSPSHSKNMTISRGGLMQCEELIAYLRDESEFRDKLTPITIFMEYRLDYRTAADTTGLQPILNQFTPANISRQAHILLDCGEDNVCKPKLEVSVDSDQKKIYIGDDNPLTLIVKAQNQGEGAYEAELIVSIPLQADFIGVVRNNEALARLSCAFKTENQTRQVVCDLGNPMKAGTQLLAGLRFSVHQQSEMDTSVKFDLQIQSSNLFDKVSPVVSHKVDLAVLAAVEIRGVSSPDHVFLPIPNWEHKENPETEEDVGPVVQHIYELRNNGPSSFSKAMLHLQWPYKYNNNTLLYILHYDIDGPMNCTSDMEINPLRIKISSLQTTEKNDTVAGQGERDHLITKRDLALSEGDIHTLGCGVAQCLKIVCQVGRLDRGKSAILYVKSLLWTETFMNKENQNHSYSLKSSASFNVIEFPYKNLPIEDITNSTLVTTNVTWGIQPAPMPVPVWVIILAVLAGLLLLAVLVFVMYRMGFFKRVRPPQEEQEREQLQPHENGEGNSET
T4 chain 2: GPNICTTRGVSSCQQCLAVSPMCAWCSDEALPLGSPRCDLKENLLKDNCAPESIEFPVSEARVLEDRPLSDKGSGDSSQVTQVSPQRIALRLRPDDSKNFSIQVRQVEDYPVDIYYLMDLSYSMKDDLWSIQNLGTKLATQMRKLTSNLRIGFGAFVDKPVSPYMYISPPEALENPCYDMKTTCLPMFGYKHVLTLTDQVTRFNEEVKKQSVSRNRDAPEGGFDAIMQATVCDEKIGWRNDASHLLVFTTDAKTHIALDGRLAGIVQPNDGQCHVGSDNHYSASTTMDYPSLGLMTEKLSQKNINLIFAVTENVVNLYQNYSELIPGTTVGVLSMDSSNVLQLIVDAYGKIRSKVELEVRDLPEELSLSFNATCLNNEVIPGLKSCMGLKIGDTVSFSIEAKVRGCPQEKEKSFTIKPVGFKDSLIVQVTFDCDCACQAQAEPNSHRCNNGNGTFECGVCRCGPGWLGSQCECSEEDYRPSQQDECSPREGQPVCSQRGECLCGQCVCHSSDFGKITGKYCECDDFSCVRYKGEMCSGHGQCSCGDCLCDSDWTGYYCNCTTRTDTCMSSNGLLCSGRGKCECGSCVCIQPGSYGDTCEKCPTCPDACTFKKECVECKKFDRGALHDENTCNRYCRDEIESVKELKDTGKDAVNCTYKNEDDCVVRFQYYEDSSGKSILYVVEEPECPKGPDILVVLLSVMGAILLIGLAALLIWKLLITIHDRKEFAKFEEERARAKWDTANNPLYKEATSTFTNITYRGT

recombinant legumain = biological target: T5, recombinant legumain (Homo sapiens (Human), UniProt Q99538 19-323, limits assumed); assay: cell-based or functional assay
T5 sequence: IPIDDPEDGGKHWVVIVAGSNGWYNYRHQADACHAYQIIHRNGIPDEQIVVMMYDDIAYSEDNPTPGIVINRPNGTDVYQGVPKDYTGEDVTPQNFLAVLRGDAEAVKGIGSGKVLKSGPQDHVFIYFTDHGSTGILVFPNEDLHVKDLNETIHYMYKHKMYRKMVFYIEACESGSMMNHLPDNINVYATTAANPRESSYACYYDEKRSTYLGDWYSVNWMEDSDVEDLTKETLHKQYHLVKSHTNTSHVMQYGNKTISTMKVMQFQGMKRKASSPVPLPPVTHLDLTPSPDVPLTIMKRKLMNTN

In the case of cystatin, the EC50 (µM) of LEG-3 for 50% cell death on Legumain+ 293 cells in the presence of cystatin (human legumain) is reported as 64.4 µM.

Work on “αvβ3 integrin (added to the legumain activity assays) (from UniProt P06756 31-1048; P05106 27-788) (receptor)” yielded a pH of peak legumain activity in the legumain:αvβ3 complex [1] of 6 pH.

B1: recombinant legumain (protein)
chain: IPIDDPEDGGKHWVVIVAGSNGWYNYRHQADACHAYQIIHRNGIPDEQIVVMMYDDIAYSEDNPTPGIVINRPNGTDVYQGVPKDYTGEDVTPQNFLAVLRGDAEAVKGIGSGKVLKSGPQDHVFIYFTDHGSTGILVFPNEDLHVKDLNETIHYMYKHKMYRKMVFYIEACESGSMMNHLPDNINVYATTAANPRESSYACYYDEKRSTYLGDWYSVNWMEDSDVEDLTKETLHKQYHLVKSHTNTSHVMQYGNKTISTMKVMQFQGMKRKASSPVPLPPVTHLDLTPSPDVPLTIMKRKLMNTN
In the case of B1, the “cleavage of caspase 9 and loss of caspase 9 activity” value (caspase 9, P55211) is reported as “legumain efficiently inactivates caspase 9 and depletes the cell of pro-caspase 9”, the “cathepsin B activity toward small peptidyl substrates” value (cathepsin B, P07858) is reported as “cathepsin B activity toward small peptidyl substrates is not affected” and the “zymogram: cleavage of MMP2 by legumain and legumain:αvβ3” value (progelatinase A, P08253) is reported as “legumain not only removes the pro-MMP2 propeptide but also cleaves MMP2 between its proteolytic domain and its integrin binding hemopexin domain”. For the same molecule, the “legumain amidolytic activity (hydrolysis of a substrate to a fluorescent product)” value [2] was “binding of legumain to αvβ3 integrin can increase legumain activity nearly 100 fold”.

In the case of Cbz-Ala-Ala-[AzaAsn]-{(S,S)‑EPCOOEt} [AEPI-1 (Cbz-Ala-Ala-AzaAsn-(S,S)-EPCOOEt)], the “IC50, amidolytic activity assay of recombinant legumain with fluorescent substrate” value (“IC50, amidolytic activity assay” for short) (recombinant legumain) is reported as about 20 nM.

B2: LEG-3 (succinyl-Ala-Ala-Asn-Leu-doxorubicin) (peptide)
peptide: Suc-AANL-doxorubicin
modifications: not fully specified (residue 1); printed as succinyl-Ala-Ala-Asn-Leu-doxorubicin
For B2, the “EC50 (µM), amount required for 50% cell death, Legumain+ 293 cells” value (human legumain) was 3.2 µM.

With Cbz-Ala-Ala-[AzaAsn]-{CH:CH‑COOBzl} [AEPI-3 (Cbz-Ala-Ala-AzaAsn-CH=CH-COOBzl)] the “IC50, amidolytic activity assay” value (recombinant legumain) was 34 nM.

Cbz-Ala-Ala-[AzaAsn]-{CH:CH‑CON(CH3)Bzl} [AEPI-4 (Cbz-Ala-Ala-AzaAsn-CH=CH-CON(CH3)Bzl)] was tested, and the “IC50, amidolytic activity assay” value (recombinant legumain) was 158 nM.

For Cbz-Ala-Ala-[AzaAsn]-{CH:CH‑COOEt} (SMILES CCOC(=O)/C=C/C(=O)N(CC(N)=O)NC(=O)[C@H](C)NC(=O)[C@H](C)NC(=O)OCc1ccccc1) [AEPI-2 (Cbz-Ala-Ala-AzaAsn-CH=CH-COOEt)], the “IC50, amidolytic activity assay” value (recombinant legumain) was about 21 nM.
